Where two headings read alike, the source gives them in different places.
Key:
[1] = biological target: the molecule itself
cross-linking = biological target: the molecule itself; experiment: cross-linking
[2] = biological target: T1, HA-tagged PRL1 expressed in HEK293 cells, Q93096; experiment: cross-linking; conditions: remark: other sources report otherwise
T1 chain: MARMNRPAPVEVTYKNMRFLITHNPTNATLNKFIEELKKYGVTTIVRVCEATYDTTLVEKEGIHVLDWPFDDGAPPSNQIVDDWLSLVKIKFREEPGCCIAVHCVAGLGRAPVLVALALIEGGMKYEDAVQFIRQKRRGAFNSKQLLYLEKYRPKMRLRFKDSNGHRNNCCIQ

B1: PRL2 (enzyme, UniProt Q12974 1-167, looked up)
chain: MNRPAPVEISYENMRFLITHNPTNATLNKFTEELKKYGVTTLVRVCDATYDKAPVEKEGIHVLDWPFDDGAPPPNQIVDDWLNLLKTKFREEPGCCVAVHCVAGLGRAPVLVALALIECGMKYEDAVQFIRQKRRGAFNSKQLLYLEKYRPKMRLRFRDTNGHCCVQ
With B1 the “stoichiometry N” value [1] was 3.

B2: PRL1 (phosphatase of regenerating liver 1), recombinant wild type (enzyme)
chain: MNRPAPVEVTYKNMRFLITHNPTNATLNKFIEELKKYGVTTIVRVCEATYDTTLVEKEGIHVLDWPFDDGAPPSNQIVDDWLSLVKIKFREEPGCCIAVHCVAGLGRAPVLVALALIEGGMKYEDAVQFIRQKRRGAFNSKQLLYLEKYRPKMRLRF
B2 was tested, and the “stoichiometry N” value (cross-linking) was 3.

B3: PRL1/F132A, recombinant (enzyme)
chain: MNRPAPVEVTYKNMRFLITHNPTNATLNKFIEELKKYGVTTIVRVCEATYDTTLVEKEGIHVLDWPFDDGAPPSNQIVDDWLSLVKIKFREEPGCCIAVHCVAGLGRAPVLVALALIEGGMKYEDAVQAIRQKRRGAFNSKQLLYLEKYRPKMRLRF
In the case of B3, the “stoichiometry N” value (cross-linking) is reported as 3.

B4: PRL1/Y14A, recombinant (enzyme)
chain: MNRPAPVEVTAKNMRFLITHNPTNATLNKFIEELKKYGVTTIVRVCEATYDTTLVEKEGIHVLDWPFDDGAPPSNQIVDDWLSLVKIKFREEPGCCIAVHCVAGLGRAPVLVALALIEGGMKYEDAVQFIRQKRRGAFNSKQLLYLEKYRPKMRLRF
In the case of B4, the “stoichiometry N” value (cross-linking) is reported as 3.

B5: HA-tagged PRL1 expressed in HEK293 cells, Q93096 1-173 (enzyme)
chain: MARMNRPAPVEVTYKNMRFLITHNPTNATLNKFIEELKKYGVTTIVRVCEATYDTTLVEKEGIHVLDWPFDDGAPPSNQIVDDWLSLVKIKFREEPGCCIAVHCVAGLGRAPVLVALALIEGGMKYEDAVQFIRQKRRGAFNSKQLLYLEKYRPKMRLRFKDSNGHRNNCCIQ
B5 was tested, and the stoichiometry N [2] was 3.

— paper PMC4987244 (Cancer research, 2016)
